# Experimental data taken from patent US20240116985A1, “STAPLED PEPTIDES AND METHODS THEREOF” (priority 2020, published 2024).
# Starred links: 1 amine or outer side, 2 acyl side, 3 side chain; linkers in the order of their positions; H or OH if unused. Positions of bridges follow the written chain, without caps; N, C: chain ends. Non-standard residues stand in square brackets, D forms with d. Primed or numbered codes have the meaning given here. PyrS2″ = (S)-3-amino-1-((pent-4-en-1-yloxy)carbonyl)pyrrolidine-3-carboxylic acid (stapling residue), C=CCCCOC(=O)N1CC[C@@](N[*:1])(C(=O)[*:2])C1; B5(16) = 2-amino-2-(pent-4-en-1-yl)hept-6-enoic acid = 2,2-bis(4-pentenyl)glycine (stitching residue), C=CCCCC(CCCC=C)(N[*:1])C(=O)[*:2]; B5(4) = 2,2-bis(4-pentenyl)glycine = 2-amino-2-(pent-4-en-1-yl)hept-6-enoic acid (stitching residue), C=CCCCC(CCCC=C)(N[*:1])C(=O)[*:2]; B5(5) = 2,2-bis(4-pentenyl)glycine, 2-amino-2-(pent-4-en-1-yl)hept-6-enoic acid (stitching residue), C=CCCCC(CCCC=C)(N[*:1])C(=O)[*:2]; TfeGA = (S)-2-amino-3-((carboxymethyl)(2,2,2-trifluoroethyl)amino)propanoic acid, O=C([C@H](CN(CC(=O)[*:3])CC(F)(F)F)N[*:1])[*:2]; PyrS2 = (S)-3-amino-1-((pent-4-en-1-yloxy)carbonyl)pyrrolidine-3-carboxylic acid, C=CCCCOC(=O)N1CC[C@@](N[*:1])(C(=O)[*:2])C1; B5 = 2-amino-2-(pent-4-en-1-yl)hept-6-enoic acid, C=CCCCC(CCCC=C)(N[*:1])C(=O)[*:2]; Phe(2-Cl) = N[C@@H](Cc1ccccc1Cl)C(=O)O; Bta = N[C@@H](Cc1csc2ccccc12)C(=O)O; Lys(iPr) = CC(C)NCCCC[C@H](N)C(=O)O; αAllylPro = C=CC[C@@]1(C(=O)O)CCCN1; tBuAla = CC(C)(C)C[C@H](N)C(=O)O; 3Thi = N[C@@H](Cc1ccsc1)C(=O)O; Cha = N[C@@H](CC1CCCCC1)C(=O)O; Cit = NC(=O)NCCC[C@H](N)C(=O)O; S8 = C=CCCCCCC[C@](C)(N)C(=O)O; Leu(ol) = CC(C)C[C@H](N)CO; hSer = N[C@@H](CCO)C(=O)O
# Biological target: full-length beta-Catenin (Uniprot ID P35222) (Homo sapiens (Human)) (UniProt P35222)
# Assay: FP competition: displacement of 5FAM-TCF4(10-53) from full-length beta-catenin
# Target sequence in this assay (P35222 whole entry): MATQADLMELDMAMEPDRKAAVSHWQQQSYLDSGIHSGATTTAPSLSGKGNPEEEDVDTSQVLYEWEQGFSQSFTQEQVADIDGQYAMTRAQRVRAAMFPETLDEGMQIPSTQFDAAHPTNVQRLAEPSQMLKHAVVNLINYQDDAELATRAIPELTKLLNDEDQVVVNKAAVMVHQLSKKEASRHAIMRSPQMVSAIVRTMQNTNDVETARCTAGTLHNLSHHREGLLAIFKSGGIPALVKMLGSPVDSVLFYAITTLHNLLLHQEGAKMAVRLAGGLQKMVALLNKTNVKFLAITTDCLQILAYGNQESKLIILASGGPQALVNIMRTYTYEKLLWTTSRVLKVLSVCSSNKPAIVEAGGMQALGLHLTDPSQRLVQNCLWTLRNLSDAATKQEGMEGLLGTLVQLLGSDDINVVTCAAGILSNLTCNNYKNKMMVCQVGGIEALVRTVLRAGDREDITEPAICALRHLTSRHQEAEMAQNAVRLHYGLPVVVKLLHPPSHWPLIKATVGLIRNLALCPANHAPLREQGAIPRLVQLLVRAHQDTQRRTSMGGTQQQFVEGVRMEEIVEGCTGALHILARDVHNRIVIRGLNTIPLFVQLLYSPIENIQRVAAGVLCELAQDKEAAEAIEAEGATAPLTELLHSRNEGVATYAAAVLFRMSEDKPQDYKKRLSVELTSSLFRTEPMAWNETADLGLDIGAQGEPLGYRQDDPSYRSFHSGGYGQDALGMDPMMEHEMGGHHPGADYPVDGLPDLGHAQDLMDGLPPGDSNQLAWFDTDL
row,Binder,EC50
1,"Ac-[αAllylPro]S[tBuAla][B5(5)]DDAAFN[PyrS2″][3Thi][Bta]Q-NH2 (staple 1-4, 4-11) [I-1222]",511 nM
2,"Ac-[αAllylPro]Q[tBuAla][B5(5)]DDAAFL[PyrS2″][3Thi][Bta]Q-NH2 (staple 1-4, 4-11) [I-1225]",305 nM
3,"Ac-[αAllylPro]D[tBuAla][B5(5)]SDAAFL[PyrS2″][3Thi][Bta]Q-NH2 (staple 1-4, 4-11) [I-1209]",479 nM
4,"Ac-[αAllylPro]D[tBuAla][B5(5)]LDAAFN[PyrS2″][3Thi][Bta]Q-NH2 (staple 1-4, 4-11) [I-1212]",8660 nM
5,"Ac-[αAllylPro]L[tBuAla][B5(5)]DDAAFN[PyrS2″][3Thi][Bta]Q-NH2 (staple 1-4, 4-11) [I-1226]",559 nM
6,"Ac-[αAllylPro]D[tBuAla][B5(5)]SDAAFN[PyrS2″][3Thi][Bta]Q-NH2 (staple 1-4, 4-11) [I-1208]",349 nM
7,"Ac-[αAllylPro]S[tBuAla][B5(5)]DDAAFL[PyrS2″][3Thi][Bta]Q-NH2 (staple 1-4, 4-11) [I-1223]",550 nM
8,"Ac-[αAllylPro][hSer][tBuAla][B5(5)]DDAAFL[PyrS2″][3Thi][Bta]Q-NH2 (staple 1-4, 4-11) [I-1229]",134 nM
9,"Ac-[αAllylPro]D[tBuAla][B5(4)]D[TfeGA]AAFT[PyrS2″][Phe(2-Cl)][Bta][Leu(ol)] (staple 1-4, 4-11) [I-1243]",82 nM
10,"Ac-[αAllylPro]N[tBuAla][B5(4)]DDAAFL[PyrS2″][3Thi][Bta]Q-NH2 (staple 1-4, 4-11) [I-1221]",14 nM
11,"Ac-[αAllylPro]Q[tBuAla][B5(5)]DDAAFN[PyrS2″][3Thi][Bta]Q-NH2 (staple 1-4, 4-11) [I-1224]",389 nM
12,"Ac-[αAllylPro]D[tBuAla][B5(5)][hSer]DAAFN[PyrS2″][3Thi][Bta]Q-NH2 (staple 1-4, 4-11) [I-1214]",116 nM
13,"Ac-[αAllylPro]D[tBuAla][B5(5)]QDAAFL[PyrS2″][3Thi][Bta]Q-NH2 (staple 1-4, 4-11) [I-1211]",115 nM
14,"Ac-[αAllylPro]D[tBuAla][B5(5)][hSer]DAAFL[PyrS2″][3Thi][Bta]Q-NH2 (staple 1-4, 4-11) [I-1215]",216 nM
15,"Ac-[αAllylPro]D[tBuAla][B5(5)]QDAAFN[PyrS2″][3Thi][Bta]Q-NH2 (staple 1-4, 4-11) [I-1210]",56 nM
16,"Ac-[αAllylPro][hSer][tBuAla][B5(5)]DDAAFN[PyrS2″][3Thi][Bta]Q-NH2 (staple 1-4, 4-11) [I-1228]",100 nM

# Biological target: full-length beta-Catenin (Uniprot ID P35222) (Homo sapiens (Human)) (UniProt P35222)
# Assay: fluorescence polarization competition; 10 nM full-length beta-catenin, 10 nM 5FAM-TCF4(10-53) probe
# Target sequence in this assay (P35222 2-781 limits assumed): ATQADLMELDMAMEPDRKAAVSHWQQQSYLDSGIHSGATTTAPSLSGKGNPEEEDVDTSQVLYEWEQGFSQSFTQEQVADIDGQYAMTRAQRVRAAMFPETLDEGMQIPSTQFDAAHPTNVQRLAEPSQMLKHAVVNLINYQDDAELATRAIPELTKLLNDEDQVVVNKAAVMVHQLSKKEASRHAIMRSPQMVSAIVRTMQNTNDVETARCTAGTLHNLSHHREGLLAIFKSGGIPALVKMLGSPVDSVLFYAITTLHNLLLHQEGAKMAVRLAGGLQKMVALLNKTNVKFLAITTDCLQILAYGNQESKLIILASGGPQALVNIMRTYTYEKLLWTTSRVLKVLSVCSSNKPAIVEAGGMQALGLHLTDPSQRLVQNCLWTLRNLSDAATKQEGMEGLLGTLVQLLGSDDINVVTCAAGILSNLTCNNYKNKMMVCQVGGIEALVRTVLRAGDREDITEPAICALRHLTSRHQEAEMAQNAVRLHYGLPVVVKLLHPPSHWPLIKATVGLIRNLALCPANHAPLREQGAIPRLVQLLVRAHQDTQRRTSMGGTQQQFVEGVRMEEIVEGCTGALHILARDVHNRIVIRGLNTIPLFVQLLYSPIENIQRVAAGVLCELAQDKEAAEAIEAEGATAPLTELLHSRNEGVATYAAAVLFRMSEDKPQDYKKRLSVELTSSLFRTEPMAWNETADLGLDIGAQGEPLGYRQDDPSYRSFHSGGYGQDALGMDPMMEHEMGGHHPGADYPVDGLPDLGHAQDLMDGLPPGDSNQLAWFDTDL
row,Binder,IC50
1,"Ac-[αAllylPro]N[tBuAla][B5(4)]DQ[Lys(iPr)]A[Cha]L[PyrS2]F[Bta]Q-NH2 (staple 1-4, 4-11) [I-1649]",2480 nM
2,"Ac-[αAllylPro]N[tBuAla][B5(4)]DQ[Lys(iPr)]AFL[PyrS2]F[Bta][Lys(iPr)]-NH2 (staple 1-4, 4-11) [I-1645]",940 nM
3,"Ac-[αAllylPro]N[tBuAla][B5(4)]DQ[Lys(iPr)]AFL[PyrS2]F[Bta][tBuAla]-NH2 (staple 1-4, 4-11) [I-1644]",10000 nM
4,"Ac-[αAllylPro]N[tBuAla][B5(5)]DQ[Lys(iPr)]AF[Cha][PyrS2]F[Bta]Q-NH2 (staple 1-4, 4-11) [I-1650]",1680 nM
5,"Ac-[αAllylPro]N[tBuAla][B5(5)]DQ[Lys(iPr)]AFL[PyrS2″][Cha][Bta]Q-NH2 (staple 1-4, 4-11) [I-1651]",3970 nM
6,"Ac-[αAllylPro]N[tBuAla][B5(4)]DQ[Lys(iPr)]AFL[PyrS2]F[Bta]K-NH2 (staple 1-4, 4-11) [I-1643]",822 nM
7,"Ac-[αAllylPro]N[tBuAla][B5(4)]DQ[Lys(iPr)]AFL[PyrS2]F[Bta][hSer]-NH2 (staple 1-4, 4-11) [I-1646]",640 nM

# Biological target: full-length beta-Catenin (Uniprot ID P35222) (Homo sapiens (Human)) (UniProt P35222)
# Assay: fluorescence polarization competition; full-length beta-catenin, 5FAM-TCF4(10-53) probe as competitor
# Target sequence in this assay (P35222 2-781 limits assumed): as above
row,Binder,IC50
1,"Ac-[αAllylPro]L[tBuAla][B5(5)]DDAAFN[PyrS2″][3Thi][Bta]Q-NH2 (staple 1-4, 4-11) [I-1226]",559 nM
2,"Ac-[αAllylPro][hSer][tBuAla][B5(5)]DDAAFL[PyrS2″][3Thi][Bta]Q-NH2 (staple 1-4, 4-11) [I-1229]",134 nM
3,"Ac-[αAllylPro]D[tBuAla][B5(4)]D[TfeGA]AAFT[PyrS2″][Phe(2-Cl)][Bta][Leu(ol)] (staple 1-4, 4-11) [I-1243]",82 nM
4,"Ac-[αAllylPro][hSer][tBuAla][B5(5)]DDAAFN[PyrS2″][3Thi][Bta]Q-NH2 (staple 1-4, 4-11) [I-1228]",100 nM

# Biological target: full-length beta-Catenin (Uniprot ID P35222) (Homo sapiens (Human)) (UniProt P35222)
# Assay: fluorescence polarization competition; full-length beta-catenin with 5FAM-TCF4(10-53) probe as competitor
# Target sequence in this assay (P35222 whole entry): as the sequence (P35222 whole entry) above
row,Binder,IC50
1,"Ac-[αAllylPro]DL[B5(4)]DEAAF[Cit][S8]F[Bta]Q-NH2 (staple 1-4, 4-11) [I-621]",58 nM
2,"Ac-[αAllylPro]DL[B5(4)]DEAAFN[S8]F[Bta]-NH2 (staple 1-4, 4-11; also: earlier-eluting staple isomer) [I-624]",273 nM
3,"Ac-[αAllylPro]DL[B5(4)]DEAAFN[S8]F[Bta]-NH2 (staple 1-4, 4-11; also: later-eluting staple isomer) [I-625]",119 nM
4,"Ac-[αAllylPro]D[Cha][B5(16)]DEAAFN[S8]F[Bta]Q-NH2 (staple 1-4, 4-11; also: later-eluting staple isomer composition) [I-620]",35 nM
5,"Ac-[αAllylPro]D[Cha][B5(4)]DEAAFN[S8]F[Bta]Q-NH2 (staple 1-4, 4-11; also: earlier-eluting staple isomer) [I-619]",44 nM
6,"Ac-[αAllylPro]DL[B5]DEAAF[Cit][S8]F[Bta]H-NH2 (staple 1-4, 4-11) [I-616]",108 nM
7,"Ac-[αAllylPro]D[Cha][B5]DEAAFN[S8]F[Bta]H-NH2 (staple 1-4, 4-11) [I-615]",50 nM

# Biological target: full-length beta-Catenin (Uniprot ID P35222) (Homo sapiens (Human)) (UniProt P35222)
# Assay: fluorescence polarization competition; peptide titrated against 10 nM full-length beta-catenin + 10 nM 5FAM-TCF4(10-53) probe
# Target sequence in this assay (P35222 whole entry): as above
row,Binder,EC50
1,"Ac-[αAllylPro]DL[B5(4)]DEAAF[Cit][S8]F[Bta]Q-NH2 (staple 1-4, 4-11) [I-621]",58 nM
2,"Ac-[αAllylPro]DL[B5(4)]DEAAFN[S8]F[Bta]-NH2 (staple 1-4, 4-11; also: earlier-eluting staple isomer) [I-624]",273 nM
3,"Ac-[αAllylPro]DL[B5(4)]DEAAFN[S8]F[Bta]-NH2 (staple 1-4, 4-11; also: later-eluting staple isomer) [I-625]",119 nM
4,"Ac-[αAllylPro]D[Cha][B5(16)]DEAAFN[S8]F[Bta]Q-NH2 (staple 1-4, 4-11; also: later-eluting staple isomer composition) [I-620]",35 nM
5,"Ac-[αAllylPro]D[Cha][B5(4)]DEAAFN[S8]F[Bta]Q-NH2 (staple 1-4, 4-11; also: earlier-eluting staple isomer) [I-619]",44 nM
6,"Ac-[αAllylPro]DL[B5]DEAAF[Cit][S8]F[Bta]H-NH2 (staple 1-4, 4-11) [I-616]",108 nM
7,"Ac-[αAllylPro]D[Cha][B5]DEAAFN[S8]F[Bta]H-NH2 (staple 1-4, 4-11) [I-615]",50 nM
